This note sets out measurements from patent US20030021776, “Regulation of angiogenesis with zinc finger proteins” (Sangamo BioSciences, Inc., published 2003).

Where a chain is given by its changes, count along the chain named.

Data set [1] addresses T1, VOP 32B-7 (VZ+434b, mVZ+426) (synthetic).
T1 chain: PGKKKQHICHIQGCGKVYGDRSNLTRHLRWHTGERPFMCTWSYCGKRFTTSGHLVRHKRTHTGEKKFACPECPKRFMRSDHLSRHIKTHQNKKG
The experiment in a line: EMSA. To be noted: tags: MBP fusion (pMal-c2), SP1 backbone.

Data set [2] addresses T2, VOP 32A-6 (VZ+434a) (synthetic).
T2 chain: T1 chain with T50M, G52H, V55S
The experiment in a line: EMSA. To be noted: tags: MBP fusion (pMal-c2), SP1 backbone. (In general: Mobility shift assays separate free from complexed probe on a gel.)

Data set [3] concerns the target T3, VOP 32B-VP16 (VZ+434b-VP16) (synthetic).
T3 chain: T1 chain
The experiment in a line: cell_activity; endogenous VEGF-A in HEK 293.

The target of data set [4] is T4, HUM 17A (VZ+472) (synthetic).
T4 chain: T1 chain with D20R, R21S, S22D, T25A, T50R, G52D, V55S, H81N, S83T, R84Q
The experiment in a line: EMSA; 17 mM Tris, 170 mM KCl, 1.7 mM MgCl2, Zn. To be noted: tags: MBP fusion (pMal-c2), SP1 backbone. As to the method:
(§1) Binding studies were performed essentially as described (Zhang et al., supra; WO 00/41566; and WO 00/42219) except that the binding reactions contained 10 pM of labeled target site and the buffer composition was as follows: 17 mM Tris, 170 mM KCl, 1.7 mM MgCl2, 3.5 mM DTT, 0.01-0.033 mM ZnCl2, 15% glycerol, 300 μg/ml bovine serum albumin, 0.03% IGEPAL. In addition, ZFP concentrations for these studies were determined directly by measuring the DNA-binding activity of each ZFP preparation using conditions under which binding is essentially stoichiometric (ZFP and target site concentrations of >100 nM).

Data set [5] has as its target ZEN-7A 1 (VZ-573) (synthetic, UniProt P08047). The experiment in a line: EMSA; 170 mM KCl, 1.7 mM MgCl2, Zn. To be noted: tags: MBP fusion (pMal-c2), SP1 backbone. As to the method:
as §1

Data set [6] deals with VOP 30A-4 (VZ+42/+530, mVZ+509) (synthetic). The experiment in a line: EMSA; upper bound; 10 mM Tris, 100 mM KCl, 1 mM MgCl2, 0.01 mM ZnCl2. To be noted: tags: MBP fusion (pMal-c2), SP1 backbone. The method, then:
(§2) A three-fold dilution series of each protein was tested for binding to its DNA target (SEQ ID NOS:207, 144, 240, and 141, respectively), with the highest concentration in lane 10 and the lowest concentration in lane 2. Lane 1 contains probe alone.
(§3) Binding studies. Binding studies were performed essentially as described (Liu, et al. (2001) J. Biol. Chem. 276: 11,323-11,334), except that the buffer was modified to the following final composition: 10 mM Tris, 100 mM KCl, 1 mM MgCl₂, 10 mM DTT, 0.01 mM ZnCl₂, 10% glycerol, 200 μg/ml bovine serum albumin, 0.02% IGEPAL.
(§4) Genes for our ZFPs were assembled (see experimental procedures) and each protein was expressed and purified essentially as described (Liu et. al., 2001, supra; and Zhang et. al., supra). We then characterized the DNA-binding affinity of each ZFP using a gel shift assay. Procedures for these studies were essentially identical to those described previously (Liu et. al., 2001, supra; and Zhang et. al., supra) except for the use of a modified binding buffer.

The target of data set [7] is T1, VOP 32B-7 (VZ+434b, mVZ+426). The description is as above. To be noted: tags: MBP fusion (pMal-c2), SP1 backbone. As to the method:
as §2, §3, §4

The target is the same in data set [8]. The experiment in a line: EMSA; 170 mM KCl, 1.7 mM MgCl2, Zn. To be noted: tags: MBP fusion (pMal-c2), SP1 backbone. As to the method:
as §1

The target in data set [9] is T5, VOP 29A-3 (synthetic).
T5 chain: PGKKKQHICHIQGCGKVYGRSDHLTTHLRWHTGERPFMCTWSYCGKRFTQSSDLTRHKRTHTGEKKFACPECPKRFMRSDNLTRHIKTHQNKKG
The experiment in a line: EMSA. To be noted: tags: MBP fusion (pMal-c2), SP1 backbone.

The target in data set [10] is T6, VZ-950 (synthetic).
T6 chain: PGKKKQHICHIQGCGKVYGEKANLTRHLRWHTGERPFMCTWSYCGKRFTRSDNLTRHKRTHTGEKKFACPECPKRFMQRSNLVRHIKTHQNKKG
The experiment in a line: EMSA; 170 mM KCl, 1.7 mM MgCl2, Zn. To be noted: tags: MBP fusion (pMal-c2), SP1 backbone. As to the method:
as §1

The target of data set [11] is VOP 30A-4 (VZ+42/+530, mVZ+509) (synthetic). The experiment in a line: EMSA. To be noted: tags: MBP fusion (pMal-c2), SP1 backbone.
In data set [12] the target is T7, SP1 zinc finger domain (UniProt P08047 SEQ:1-94). The experiment in a line: EMSA; 100 mM KCl, 1 mM MgCl2, Zn. The method, then:
as §3, §4

For data set [13], the target named is T7, SP1 zinc finger domain. The experiment in a line: EMSA; 170 mM KCl, 1.7 mM MgCl2, Zn. The method, then:
as §1

Data set [14] has as its target T8, PDF 5A (VZ+590) (synthetic).
T8 chain: T1 chain with N23S, T50R, G52D, V55S, R78Q, D80G, H81S, S83T
The experiment in a line: EMSA; 170 mM KCl, 1.7 mM MgCl2, Zn. To be noted: tags: MBP fusion (pMal-c2), SP1 backbone. The method, then: as §1

The target of data set [15] is T9, BVO 13A (synthetic).
T9 chain: T5 chain with T25A, T26R, Q50D, S51R, D53N, N81A, R84Q
The experiment in a line: EMSA. To be noted: tags: MBP fusion (pMal-c2), SP1 backbone.

Data set [16] deals with T10, MX1E (synthetic).
T10 chain: T5 chain with T25A, T26R, Q50D, S51R, D53N, N81A, T83S, R84A
The experiment in a line: EMSA. To be noted: tags: MBP fusion (pMal-c2), SP1 backbone.

The target in data set [17] is VEGF 1B (synthetic, UniProt P08047). The experiment in a line: EMSA. To be noted: tags: MBP fusion (pMal-c2), SP1 backbone.
Data set [18] deals with VOP 35A-10 (VZ+892) (synthetic). The experiment in a line: EMSA; 170 mM KCl, 1.7 mM MgCl2, Zn. To be noted: tags: MBP fusion (pMal-c2), SP1 backbone. As to the method:
as §1

Data set [19] has as its target VOP 28A-2 (synthetic). The experiment in a line: EMSA. To be noted: tags: MBP fusion (pMal-c2), SP1 backbone.
The target in data set [20] is T11, HUM 19A (synthetic).
T11 chain: T1 chain with T50Q, H53D, V55T, S83T, R84T
The experiment in a line: EMSA. To be noted: tags: MBP fusion (pMal-c2), SP1 backbone.

For data set [21], the target named is T12, VEGF 1 (VZ-8) (synthetic, UniProt P08047).
T12 chain: T1 chain with D20T, R21T, T25R, T50R, G52S, H53N, V55Q
The experiment in a line: EMSA; 170 mM KCl, 1.7 mM MgCl2, Zn. To be noted: tags: MBP fusion (pMal-c2), SP1 backbone. The method, then: as §1

Data set [22] addresses VG 8A (VZ-475) (synthetic). The experiment in a line: EMSA; 170 mM KCl, 1.7 mM MgCl2, Zn. To be noted: tags: MBP fusion (pMal-c2), SP1 backbone. As to the method:
as §1

The target of data set [23] is MTS 5A (synthetic, UniProt P08047). The experiment in a line: EMSA. To be noted: tags: MBP fusion (pMal-c2), SP1 backbone.
Data set [24] has as its target USX 3A (synthetic). The experiment in a line: EMSA. To be noted: tags: MBP fusion (pMal-c2), SP1 backbone.
The target in data set [25] is VOP 35A-10 (VZ+892) (synthetic). The experiment in a line: EMSA; Table 6 gives 0.24 nM for same helices (VZ+892). To be noted: tags: MBP fusion (pMal-c2), SP1 backbone.
VOP 35A-10 (VZ+892) (synthetic), sequence (chain, as listed by the source): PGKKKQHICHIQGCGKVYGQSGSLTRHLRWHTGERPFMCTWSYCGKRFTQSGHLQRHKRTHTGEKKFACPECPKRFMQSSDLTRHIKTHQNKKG

VOP 30A-4 (VZ+42/+530, mVZ+509) (synthetic), sequence (chain, as listed by the source): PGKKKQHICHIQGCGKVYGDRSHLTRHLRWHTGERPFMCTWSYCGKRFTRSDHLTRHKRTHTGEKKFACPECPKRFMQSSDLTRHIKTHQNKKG
T7 sequence (P08047 620-713): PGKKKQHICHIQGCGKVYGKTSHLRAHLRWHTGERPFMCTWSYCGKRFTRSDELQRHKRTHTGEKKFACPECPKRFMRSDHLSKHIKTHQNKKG
VG 8A (VZ-475) (synthetic), sequence (chain, as listed by the source): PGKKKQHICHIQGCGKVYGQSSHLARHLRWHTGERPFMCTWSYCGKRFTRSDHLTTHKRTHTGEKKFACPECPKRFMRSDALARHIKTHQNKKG
MTS 5A, sequence (P08047 other isoform, or with tags, fused parts or gaps): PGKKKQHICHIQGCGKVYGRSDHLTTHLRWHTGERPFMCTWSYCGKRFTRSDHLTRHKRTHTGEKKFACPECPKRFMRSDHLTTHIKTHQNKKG
VOP 28A-2 (synthetic), sequence (chain, as listed by the source): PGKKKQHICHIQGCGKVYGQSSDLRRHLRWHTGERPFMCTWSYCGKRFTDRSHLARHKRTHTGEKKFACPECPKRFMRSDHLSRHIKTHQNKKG
VEGF 1B, sequence (P08047 other isoform, or with tags, fused parts or gaps): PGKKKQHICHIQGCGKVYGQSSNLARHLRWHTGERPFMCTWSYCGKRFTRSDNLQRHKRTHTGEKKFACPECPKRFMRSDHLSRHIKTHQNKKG
ZEN-7A 1 (VZ-573), sequence (P08047 other isoform, or with tags, fused parts or gaps): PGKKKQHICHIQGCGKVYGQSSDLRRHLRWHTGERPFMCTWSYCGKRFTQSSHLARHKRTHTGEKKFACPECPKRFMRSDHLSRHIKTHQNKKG

B1: VOP 32A/32B target (dsDNA)
DNA 1: GGGGGTGAC
DNA 2: GTCACCCCC
Usually Kd stands for the equilibrium constant for the complex coming apart. A low value points to a tighter complex. Regarding B1, the Kd in data set [1] and in data set [2] was less than 0.02 nM each time. The molecule also had an activity in data set [3] of 8 fold.

B2: VZ+472 target (dsDNA)
DNA 1: AAGGGGGAGG
DNA 2: CCTCCCCCTT
On to B2, for which, in data set [4], the Kd amounted to 0.006 nM.

B3: VZ-573 target (dsDNA)
DNA 1: GGGGGCGCTC
DNA 2: GAGCGCCCCC
On to B3, for which, in [5], the Kd is 0.63 nM.

B4: mVZ+509 target (dsDNA)
DNA 1: GCTGGGGGCG
DNA 2: CGCCCCCAGC
The molecule B4 yielded a dissociation constant (Kd) in data set [6] of less than 0.01 nM.

B5: VZ+434 / mVZ+426 target (dsDNA)
DNA 1: GGGGGTGACC
DNA 2: GGTCACCCCC
For the molecule B5, the Kd in data set [7] is less than 0.01 nM; in [8], less than 0.02 nM.

B6: VOP 29A-3 target (dsDNA)
DNA 1: GAGGCTTGG
DNA 2: CCAAGCCTC
B6 gave a Kd in data set [9] of less than 0.02 nM.

B7: VZ-950 target (dsDNA)
DNA 1: GAAGAGGACC
DNA 2: GGTCCTCTTC
Take B7: the Kd in [10] was 0.18 nM.

B8: VOP 30A target (dsDNA)
DNA 1: GCTGGGGGC
DNA 2: GCCCCCAGC
Turning to B8, in [11], the Kd was less than 0.02 nM.

B9: SP1 target (dsDNA)
DNA 1: GGGGCGGGGG
DNA 2: CCCCCGCCCC
As to B9, the Kd in [12] worked out at 0.053 nM; in data set [13] it was 0.25 nM.

B10: VZ+590 target (dsDNA)
DNA 1: GCAGGGGCCG
DNA 2: CGGCCCCTGC
B10: in [14], binding was characterised by a dissociation constant (Kd) of 0.23 nM.

B11: BVO 13A / MX1E target (dsDNA)
DNA 1: ATGGACGGG
DNA 2: CCCGTCCAT
In the case of B11, the dissociation constant (Kd) in [15] was less than 0.02 nM; in data set [16], 3.4 nM.

B12: VEGF 1B target (dsDNA)
DNA 1: GGGGAGGAT
DNA 2: ATCCTCCCC
B12 displayed a Kd in data set [17] of 2 nM. This lies in the single-digit nanomolar range.

B13: VZ+892 target (dsDNA)
DNA 1: GCTGGAGCAC
DNA 2: GTGCTCCAGC
In data set [18], B13 came in with a Kd of 0.24 nM.

B14: VOP 28A-2 target (dsDNA)
DNA 1: GGGGGCGCT
DNA 2: AGCGCCCCC
Take B14: the Kd in data set [19] was less than 0.02 nM.

B15: HUM 19A target (dsDNA)
DNA 1: TGGGCAGAC
DNA 2: GTCTGCCCA
For B15, in [20], the Kd amounted to 0.02 nM.

B16: VZ-8 target (dsDNA)
DNA 1: GGGGAGGATC
DNA 2: GATCCTCCCC
B16: in data set [21], the affinity, expressed as Kd, was 2.83 nM.

B17: VZ-475 target (dsDNA)
DNA 1: GTGTGGGGTT
DNA 2: AACCCCACAC
B17 showed a dissociation constant Kd in [22] of 0.35 nM.

B18: MTS 5A target (dsDNA)
DNA 1: TGGGGGTGG
DNA 2: CCACCCCCA
Regarding B18, the Kd in [23] is 0.07 nM.

B19: USX 3A target (dsDNA)
DNA 1: GCCGGGGAG
DNA 2: CTCCCCGGC
For the molecule B19, the affinity in data set [24], expressed as Kd, was 0.06 nM.

B20: VOP 35A-10 target (dsDNA)
DNA 1: GCTGGAGCA
DNA 2: TGCTCCAGC
Consider B20, for which the dissociation constant Kd in data set [25] is less than 0.02 nM.
